Measurements reported in patent US20090099029.

Target: Bovine, dephosphorylated, Myelin Basic Protein (MBP) (UniProt P02687)
Sequence (P02687 whole entry): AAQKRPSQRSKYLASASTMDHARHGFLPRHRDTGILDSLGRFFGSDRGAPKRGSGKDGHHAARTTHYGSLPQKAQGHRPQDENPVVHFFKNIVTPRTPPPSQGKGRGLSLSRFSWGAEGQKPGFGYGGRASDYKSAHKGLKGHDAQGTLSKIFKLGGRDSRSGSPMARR

Sequence of NTRK1 (chain, as listed by the source): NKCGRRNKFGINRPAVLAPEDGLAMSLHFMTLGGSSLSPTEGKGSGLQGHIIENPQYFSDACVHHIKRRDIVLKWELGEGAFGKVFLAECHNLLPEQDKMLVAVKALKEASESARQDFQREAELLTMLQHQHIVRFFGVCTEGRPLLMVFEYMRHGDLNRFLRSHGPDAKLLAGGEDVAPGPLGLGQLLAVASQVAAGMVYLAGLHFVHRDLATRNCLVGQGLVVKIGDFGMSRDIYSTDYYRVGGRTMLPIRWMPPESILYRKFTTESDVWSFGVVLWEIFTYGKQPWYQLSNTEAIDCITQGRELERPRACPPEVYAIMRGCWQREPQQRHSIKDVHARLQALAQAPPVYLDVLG
Sequence of FYN (chain, as listed by the source): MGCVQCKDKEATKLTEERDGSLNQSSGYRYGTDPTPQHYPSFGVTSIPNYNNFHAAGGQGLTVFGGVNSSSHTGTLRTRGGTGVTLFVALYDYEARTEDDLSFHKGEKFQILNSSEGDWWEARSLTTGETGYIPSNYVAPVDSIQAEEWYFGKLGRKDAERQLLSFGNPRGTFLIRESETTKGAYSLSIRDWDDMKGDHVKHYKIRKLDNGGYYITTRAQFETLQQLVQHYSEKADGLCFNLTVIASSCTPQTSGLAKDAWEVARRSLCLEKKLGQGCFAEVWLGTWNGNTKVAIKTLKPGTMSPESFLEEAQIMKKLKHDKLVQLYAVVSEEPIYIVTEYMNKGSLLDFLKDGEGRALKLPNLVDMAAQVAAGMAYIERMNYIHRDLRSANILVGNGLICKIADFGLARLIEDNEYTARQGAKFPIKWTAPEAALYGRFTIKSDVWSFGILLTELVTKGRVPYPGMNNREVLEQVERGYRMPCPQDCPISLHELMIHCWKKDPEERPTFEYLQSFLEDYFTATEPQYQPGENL
Sequence of WEE1 (chain, as listed by the source): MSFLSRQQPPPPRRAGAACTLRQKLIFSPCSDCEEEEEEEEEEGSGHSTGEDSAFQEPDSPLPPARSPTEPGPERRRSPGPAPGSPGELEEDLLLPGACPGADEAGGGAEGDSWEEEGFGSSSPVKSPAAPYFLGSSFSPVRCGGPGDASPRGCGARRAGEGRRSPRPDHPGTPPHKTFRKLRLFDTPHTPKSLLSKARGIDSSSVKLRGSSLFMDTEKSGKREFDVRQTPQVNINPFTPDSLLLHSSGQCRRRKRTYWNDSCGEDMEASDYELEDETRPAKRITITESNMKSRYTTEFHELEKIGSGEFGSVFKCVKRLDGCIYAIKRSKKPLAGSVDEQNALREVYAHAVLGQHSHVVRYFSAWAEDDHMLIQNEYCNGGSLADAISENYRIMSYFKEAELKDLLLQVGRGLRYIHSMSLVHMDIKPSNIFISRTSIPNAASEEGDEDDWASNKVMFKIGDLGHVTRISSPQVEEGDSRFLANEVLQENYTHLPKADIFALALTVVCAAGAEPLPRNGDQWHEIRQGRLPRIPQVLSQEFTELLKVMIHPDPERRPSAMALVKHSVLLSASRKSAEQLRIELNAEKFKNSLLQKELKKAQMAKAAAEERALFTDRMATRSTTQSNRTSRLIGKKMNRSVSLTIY
Sequence of NEK6 (chain, as listed by the source): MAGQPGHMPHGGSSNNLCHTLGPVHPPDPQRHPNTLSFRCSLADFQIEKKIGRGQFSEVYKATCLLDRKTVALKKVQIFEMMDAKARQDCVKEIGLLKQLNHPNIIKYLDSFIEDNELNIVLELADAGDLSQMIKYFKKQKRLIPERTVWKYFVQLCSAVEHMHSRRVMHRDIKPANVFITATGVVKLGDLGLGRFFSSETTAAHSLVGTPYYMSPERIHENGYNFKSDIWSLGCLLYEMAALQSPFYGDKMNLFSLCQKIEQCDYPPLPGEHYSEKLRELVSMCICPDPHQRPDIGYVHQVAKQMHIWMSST
Sequence of EPHA7 (chain, as listed by the source): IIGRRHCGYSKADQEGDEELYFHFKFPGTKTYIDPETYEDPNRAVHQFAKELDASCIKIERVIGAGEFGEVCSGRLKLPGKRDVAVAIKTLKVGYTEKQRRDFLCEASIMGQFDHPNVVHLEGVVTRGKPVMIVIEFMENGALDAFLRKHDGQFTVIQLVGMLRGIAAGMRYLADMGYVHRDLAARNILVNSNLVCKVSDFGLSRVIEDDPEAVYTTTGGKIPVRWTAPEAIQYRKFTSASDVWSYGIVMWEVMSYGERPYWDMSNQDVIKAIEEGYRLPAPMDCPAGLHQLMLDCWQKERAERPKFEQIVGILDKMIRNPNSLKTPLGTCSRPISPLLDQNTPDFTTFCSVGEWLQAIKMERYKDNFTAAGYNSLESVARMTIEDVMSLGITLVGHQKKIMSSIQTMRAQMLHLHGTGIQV
Sequence of MAP4K5(KHS1) (chain, as listed by the source): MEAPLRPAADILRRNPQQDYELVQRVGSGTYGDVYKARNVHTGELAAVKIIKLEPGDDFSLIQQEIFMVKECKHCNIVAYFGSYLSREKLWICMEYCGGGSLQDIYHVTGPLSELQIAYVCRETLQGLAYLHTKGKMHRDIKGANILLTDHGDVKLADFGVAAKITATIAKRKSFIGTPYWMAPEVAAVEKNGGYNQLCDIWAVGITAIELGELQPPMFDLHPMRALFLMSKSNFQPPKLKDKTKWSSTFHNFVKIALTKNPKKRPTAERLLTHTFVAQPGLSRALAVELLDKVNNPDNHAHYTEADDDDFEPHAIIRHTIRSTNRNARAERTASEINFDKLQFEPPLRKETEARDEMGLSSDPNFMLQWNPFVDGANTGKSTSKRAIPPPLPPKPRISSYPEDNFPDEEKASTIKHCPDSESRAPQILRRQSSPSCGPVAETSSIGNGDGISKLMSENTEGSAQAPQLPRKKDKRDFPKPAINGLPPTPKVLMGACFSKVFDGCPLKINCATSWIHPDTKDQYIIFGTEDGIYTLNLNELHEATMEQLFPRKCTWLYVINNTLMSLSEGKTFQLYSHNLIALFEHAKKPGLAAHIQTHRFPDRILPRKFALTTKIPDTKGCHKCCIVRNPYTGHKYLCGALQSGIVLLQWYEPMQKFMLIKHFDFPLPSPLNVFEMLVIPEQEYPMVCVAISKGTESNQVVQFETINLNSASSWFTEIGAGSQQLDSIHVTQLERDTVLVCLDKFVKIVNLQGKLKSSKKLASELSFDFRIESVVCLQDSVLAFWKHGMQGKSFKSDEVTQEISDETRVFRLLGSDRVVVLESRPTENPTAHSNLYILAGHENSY
Sequence of YES1 (chain, as listed by the source): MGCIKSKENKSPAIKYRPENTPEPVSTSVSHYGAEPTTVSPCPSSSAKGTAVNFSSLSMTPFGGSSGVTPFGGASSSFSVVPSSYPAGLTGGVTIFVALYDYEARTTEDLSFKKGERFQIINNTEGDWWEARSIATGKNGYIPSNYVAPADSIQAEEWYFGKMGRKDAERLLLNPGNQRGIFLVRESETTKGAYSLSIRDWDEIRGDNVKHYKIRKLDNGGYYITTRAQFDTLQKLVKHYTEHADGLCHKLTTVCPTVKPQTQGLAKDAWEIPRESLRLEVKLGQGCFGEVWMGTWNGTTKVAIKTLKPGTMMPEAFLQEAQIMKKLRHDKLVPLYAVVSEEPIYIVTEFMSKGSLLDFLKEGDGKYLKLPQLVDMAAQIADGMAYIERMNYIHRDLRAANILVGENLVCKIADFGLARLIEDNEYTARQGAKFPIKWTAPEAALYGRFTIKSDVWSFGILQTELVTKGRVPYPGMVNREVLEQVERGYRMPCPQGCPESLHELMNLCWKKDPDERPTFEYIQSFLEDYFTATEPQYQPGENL
Sequence of CLK4 (chain, as listed by the source): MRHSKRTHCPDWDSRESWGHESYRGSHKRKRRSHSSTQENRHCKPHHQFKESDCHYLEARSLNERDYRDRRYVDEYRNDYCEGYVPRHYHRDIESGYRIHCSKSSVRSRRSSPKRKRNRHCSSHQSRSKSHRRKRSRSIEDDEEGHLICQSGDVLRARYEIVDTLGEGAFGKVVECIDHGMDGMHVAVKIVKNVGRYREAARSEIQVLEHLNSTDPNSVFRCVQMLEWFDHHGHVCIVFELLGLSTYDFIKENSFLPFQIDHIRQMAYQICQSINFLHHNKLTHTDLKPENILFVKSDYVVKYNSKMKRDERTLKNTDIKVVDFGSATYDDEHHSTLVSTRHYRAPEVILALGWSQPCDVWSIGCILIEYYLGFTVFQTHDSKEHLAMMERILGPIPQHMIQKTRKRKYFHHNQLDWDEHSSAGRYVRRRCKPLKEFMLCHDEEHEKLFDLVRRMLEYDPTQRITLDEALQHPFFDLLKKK
Sequence of CSNK1G2 (chain, as listed by the source): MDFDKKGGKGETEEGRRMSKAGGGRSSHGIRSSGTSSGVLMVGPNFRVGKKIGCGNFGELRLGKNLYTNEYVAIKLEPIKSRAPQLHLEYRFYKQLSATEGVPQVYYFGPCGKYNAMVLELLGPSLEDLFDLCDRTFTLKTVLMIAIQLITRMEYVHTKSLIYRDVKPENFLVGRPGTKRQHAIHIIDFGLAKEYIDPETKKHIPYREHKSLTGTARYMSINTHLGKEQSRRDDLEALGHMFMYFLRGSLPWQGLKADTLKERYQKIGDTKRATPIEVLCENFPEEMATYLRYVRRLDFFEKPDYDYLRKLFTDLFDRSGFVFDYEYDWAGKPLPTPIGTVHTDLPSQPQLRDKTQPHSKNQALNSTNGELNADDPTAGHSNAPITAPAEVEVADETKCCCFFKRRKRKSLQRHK

Substance | MBP Kinase Activity
ADRBK2(GRK3) | Negative
AKT1 | Strong
BLK | Weak
CDK1/cyclin B | Strong
CLK1 | Strong
CLK3 | Strong
CLK4 | Negative
CSNK1G1(CK1gamma1) | Negative
CSNK1G2 | Negative
CSNK1G3 | Weak
EGFR | Negative
EPHA7 | Weak
FGR | Weak
FYN | Strong
MAP4K5(KHS1) | Negative
MLCK | Negative
MST4 | Negative
NEK6 | Negative

Substance | MBP Kinase Activity
NEK7 | Negative
NTRK1 | Strong
NTRK2 | Strong
NTRK3 | Strong
PHKG1 | Negative
PIM1 | Strong
PIM2 | Weak
PKN1(PRK1) | Strong
PRKCB1 | Strong
PRKCD | Strong
PRKCG | Strong
SGK | Strong
SGKL(SGK3) | Weak
STK24(MST3) | Weak
STK25(YSK1) | Strong
WEE1 | Negative
YES1 | Weak
